We go through 14 variants from the supplement of paper PMC12338614.

B1: library; numbered along this chain (parent)
chain: MEVVDPQQLGMFTEGELMSVGMDTFIHRIDSTEVIYQPRRKRAKLIGKYLMGDLLGEGSYGKVKEVLDSETLCRRAVKILKKKKLRRIPNGEANVKKEIQLLRRLRHKNVIQLVDVLYNEEKQKMYMVMEYCVCGMQEMLDSVPEKRFPVCQAHGYFCQLIDGLEYLHSQGIVHKDIKPGNLLLTTGGTLKISDLGVAEALHPFAADDTCRTSQGSPAFQPPEIANGLDTFSGFKVDIWSAGVTLYNITTGLYPFEGDNIYKLFENIGKGSYAIPGDCGPPLSDLLKGMLEYEPAKRFSIRQIRQHSWFRKKHPPAEAPVPIPPSPDTKDRWRSMTVVPYLEDLHGADEDEDLFDIEDDIIYTQDFTVPGQVPEEEASHNGQRRGLPKAVCMNGTEAAQLSTKSRAEGRAPNPARKACSASSKIRRLSACKQQ

± gives the uncertainty stated by the source.

Variants of B1 are the subject of the data set. Briefly: STK11 functional score (HeLa growth suppression), rescaled enrichment; synonymous median = 1, nonsense median = 0 (normalised score). Particulars: with HeLa; variant type: missense. The gist of the method: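 Functional scores are post/pre-selection log ratios corrected to wild type, rescaled to synonymous and nonsense medians, merged over codons and replicate transfections, and given bootstrapped error. They come from POPCode libraries of codon-optimised STK11 integrated by Bxb1 at an AAVS1 landing pad in HeLa, three regions each transfected three times, with BFP-negative, mCherry-positive integrants sorted by FACS and tiled gDNA amplicons sequenced on NextSeq.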
Consider MEVVDPQQLGMFTEGELMSVGMDTFIHRIDSTEVIYQPRRKRAKLIGKYLMGDLLGEGSYGKVKEVLDSETLCRRAVKILKKKKLRRIPNGEANVKKEIQLLRRLRHKNVIQLVDVLYNEEKQKMYMVMEYCVCGMQEMLDSVPEKRFPVCQAHGYFCQLIDGLEYLHSQGIVHKDIKPGNLLLTTGGTLKISDLGVAEALHPFAADDTCRTSQGSPAFQPPEIAKGLDTFSGFKVDIWSAGVTLYNITTGLYPFEGDNIYKLFENIGKGSYAIPGDCGPPLSDLLKGMLEYEPAKRFSIRQIRQHSWFRKKHPPAEAPVPIPPSPDTKDRWRSMTVVPYLEDLHGADEDEDLFDIEDDIIYTQDFTVPGQVPEEEASHNGQRRGLPKAVCMNGTEAAQLSTKSRAEGRAPNPARKACSASSKIRRLSACKQQ [N226K], for which the STK11 functional score came out at 0.86 ± 0.31.
Under MEVVDPQQLGMFTEGELMSVGMDTFIHRIDSTEVIYQPRRKRAKLIGKYLMGDLLGEGSYGKVKEVLDSETLCRRAVKILKKKKLRRIPNGEANVKKEIQLLRRLRHKNVIQLVDVLYNEEKQKMYMVMEYCVCGMQEMLDSVPEKRFPVCQAHGYFCQLIDGLEYLHSQGIVHKDIKPGNLLLTTGGTLKISDLGVAEALHPFAADDTCRTSQGSPAFQPPEIAAGLDTFSGFKVDIWSAGVTLYNITTGLYPFEGDNIYKLFENIGKGSYAIPGDCGPPLSDLLKGMLEYEPAKRFSIRQIRQHSWFRKKHPPAEAPVPIPPSPDTKDRWRSMTVVPYLEDLHGADEDEDLFDIEDDIIYTQDFTVPGQVPEEEASHNGQRRGLPKAVCMNGTEAAQLSTKSRAEGRAPNPARKACSASSKIRRLSACKQQ [N226A] stands 1.61 ± 0.19; under MEVVDPQQLGMFTEGELMSVGMDTFIHRIDSTEVIYQPRRKRAKLIGKYLMGDLLGEGSYGKVKEVLDSETLCRRAVKILKKKKLRRIPNGEANVKKEIQLLRRLRHKNVIQLVDVLYNEEKQKMYMVMEYCVCGMQEMLDSVPEKRFPVCQAHGYFCQLIDGLEYLHSQGIVHKDIKPGNLLLTTGGTLKISDLGVAEALHPFAADDTCRTSQGSPAFQPPEIALGLDTFSGFKVDIWSAGVTLYNITTGLYPFEGDNIYKLFENIGKGSYAIPGDCGPPLSDLLKGMLEYEPAKRFSIRQIRQHSWFRKKHPPAEAPVPIPPSPDTKDRWRSMTVVPYLEDLHGADEDEDLFDIEDDIIYTQDFTVPGQVPEEEASHNGQRRGLPKAVCMNGTEAAQLSTKSRAEGRAPNPARKACSASSKIRRLSACKQQ [N226L], 1.08 ± 0.2; under MEVVDPQQLGMFTEGELMSVGMDTFIHRIDSTEVIYQPRRKRAKLIGKYLMGDLLGEGSYGKVKEVLDSETLCRRAVKILKKKKLRRIPNGEANVKKEIQLLRRLRHKNVIQLVDVLYNEEKQKMYMVMEYCVCGMQEMLDSVPEKRFPVCQAHGYFCQLIDGLEYLHSQGIVHKDIKPGNLLLTTGGTLKISDLGVAEALHPFAADDTCRTSQGSPAFQPPEIAGGLDTFSGFKVDIWSAGVTLYNITTGLYPFEGDNIYKLFENIGKGSYAIPGDCGPPLSDLLKGMLEYEPAKRFSIRQIRQHSWFRKKHPPAEAPVPIPPSPDTKDRWRSMTVVPYLEDLHGADEDEDLFDIEDDIIYTQDFTVPGQVPEEEASHNGQRRGLPKAVCMNGTEAAQLSTKSRAEGRAPNPARKACSASSKIRRLSACKQQ [N226G], 1.24 ± 0.17.
As to MEVVDPQQLGMFTEGELMSVGMDTFIHRIDSTEVIYQPRRKRAKLIGKYLMGDLLGEGSYGKVKEVLDSETLCRRAVKILKKKKLRRIPNGEANVKKEIQLLRRLRHKNVIQLVDVLYNEEKQKMYMVMEYCVCGMQEMLDSVPEKRFPVCQAHGYFCQLIDGLEYLHSQGIVHKDIKPGNLLLTTGGTLKISDLGVAEALHPFAADDTCRTSQGSPAFQPPEIAEGLDTFSGFKVDIWSAGVTLYNITTGLYPFEGDNIYKLFENIGKGSYAIPGDCGPPLSDLLKGMLEYEPAKRFSIRQIRQHSWFRKKHPPAEAPVPIPPSPDTKDRWRSMTVVPYLEDLHGADEDEDLFDIEDDIIYTQDFTVPGQVPEEEASHNGQRRGLPKAVCMNGTEAAQLSTKSRAEGRAPNPARKACSASSKIRRLSACKQQ [N226E], the STK11 functional score was found to be 0.0384 ± 0.15.
Turning to MEVVDPQQLGMFTEGELMSVGMDTFIHRIDSTEVIYQPRRKRAKLIGKYLMGDLLGEGSYGKVKEVLDSETLCRRAVKILKKKKLRRIPNGEANVKKEIQLLRRLRHKNVIQLVDVLYNEEKQKMYMVMEYCVCGMQEMLDSVPEKRFPVCQAHGYFCQLIDGLEYLHSQGIVHKDIKPGNLLLTTGGTLKISDLGVAEALHPFAADDTCRTSQGSPAFQPPEIAHGLDTFSGFKVDIWSAGVTLYNITTGLYPFEGDNIYKLFENIGKGSYAIPGDCGPPLSDLLKGMLEYEPAKRFSIRQIRQHSWFRKKHPPAEAPVPIPPSPDTKDRWRSMTVVPYLEDLHGADEDEDLFDIEDDIIYTQDFTVPGQVPEEEASHNGQRRGLPKAVCMNGTEAAQLSTKSRAEGRAPNPARKACSASSKIRRLSACKQQ [N226H], the STK11 functional score turned out to be 0.561 ± 0.47.
On to MEVVDPQQLGMFTEGELMSVGMDTFIHRIDSTEVIYQPRRKRAKLIGKYLMGDLLGEGSYGKVKEVLDSETLCRRAVKILKKKKLRRIPNGEANVKKEIQLLRRLRHKNVIQLVDVLYNEEKQKMYMVMEYCVCGMQEMLDSVPEKRFPVCQAHGYFCQLIDGLEYLHSQGIVHKDIKPGNLLLTTGGTLKISDLGVAEALHPFAADDTCRTSQGSPAFQPPEIAIGLDTFSGFKVDIWSAGVTLYNITTGLYPFEGDNIYKLFENIGKGSYAIPGDCGPPLSDLLKGMLEYEPAKRFSIRQIRQHSWFRKKHPPAEAPVPIPPSPDTKDRWRSMTVVPYLEDLHGADEDEDLFDIEDDIIYTQDFTVPGQVPEEEASHNGQRRGLPKAVCMNGTEAAQLSTKSRAEGRAPNPARKACSASSKIRRLSACKQQ [N226I], for which the STK11 functional score amounted to 0.495 ± 0.48.
The result for MEVVDPQQLGMFTEGELMSVGMDTFIHRIDSTEVIYQPRRKRAKLIGKYLMGDLLGEGSYGKVKEVLDSETLCRRAVKILKKKKLRRIPNGEANVKKEIQLLRRLRHKNVIQLVDVLYNEEKQKMYMVMEYCVCGMQEMLDSVPEKRFPVCQAHGYFCQLIDGLEYLHSQGIVHKDIKPGNLLLTTGGTLKISDLGVAEALHPFAADDTCRTSQGSPAFQPPEIACGLDTFSGFKVDIWSAGVTLYNITTGLYPFEGDNIYKLFENIGKGSYAIPGDCGPPLSDLLKGMLEYEPAKRFSIRQIRQHSWFRKKHPPAEAPVPIPPSPDTKDRWRSMTVVPYLEDLHGADEDEDLFDIEDDIIYTQDFTVPGQVPEEEASHNGQRRGLPKAVCMNGTEAAQLSTKSRAEGRAPNPARKACSASSKIRRLSACKQQ [N226C] reads 1.29 ± 0.27; that for MEVVDPQQLGMFTEGELMSVGMDTFIHRIDSTEVIYQPRRKRAKLIGKYLMGDLLGEGSYGKVKEVLDSETLCRRAVKILKKKKLRRIPNGEANVKKEIQLLRRLRHKNVIQLVDVLYNEEKQKMYMVMEYCVCGMQEMLDSVPEKRFPVCQAHGYFCQLIDGLEYLHSQGIVHKDIKPGNLLLTTGGTLKISDLGVAEALHPFAADDTCRTSQGSPAFQPPEIAMGLDTFSGFKVDIWSAGVTLYNITTGLYPFEGDNIYKLFENIGKGSYAIPGDCGPPLSDLLKGMLEYEPAKRFSIRQIRQHSWFRKKHPPAEAPVPIPPSPDTKDRWRSMTVVPYLEDLHGADEDEDLFDIEDDIIYTQDFTVPGQVPEEEASHNGQRRGLPKAVCMNGTEAAQLSTKSRAEGRAPNPARKACSASSKIRRLSACKQQ [N226M], 0.459 ± 0.1.
Consider MEVVDPQQLGMFTEGELMSVGMDTFIHRIDSTEVIYQPRRKRAKLIGKYLMGDLLGEGSYGKVKEVLDSETLCRRAVKILKKKKLRRIPNGEANVKKEIQLLRRLRHKNVIQLVDVLYNEEKQKMYMVMEYCVCGMQEMLDSVPEKRFPVCQAHGYFCQLIDGLEYLHSQGIVHKDIKPGNLLLTTGGTLKISDLGVAEALHPFAADDTCRTSQGSPAFQPPEITNGLDTFSGFKVDIWSAGVTLYNITTGLYPFEGDNIYKLFENIGKGSYAIPGDCGPPLSDLLKGMLEYEPAKRFSIRQIRQHSWFRKKHPPAEAPVPIPPSPDTKDRWRSMTVVPYLEDLHGADEDEDLFDIEDDIIYTQDFTVPGQVPEEEASHNGQRRGLPKAVCMNGTEAAQLSTKSRAEGRAPNPARKACSASSKIRRLSACKQQ [A225T], for which the STK11 functional score was found to be 1.65 ± 0.34.
With MEVVDPQQLGMFTEGELMSVGMDTFIHRIDSTEVIYQPRRKRAKLIGKYLMGDLLGEGSYGKVKEVLDSETLCRRAVKILKKKKLRRIPNGEANVKKEIQLLRRLRHKNVIQLVDVLYNEEKQKMYMVMEYCVCGMQEMLDSVPEKRFPVCQAHGYFCQLIDGLEYLHSQGIVHKDIKPGNLLLTTGGTLKISDLGVAEALHPFAADDTCRTSQGSPAFQPPEIRNGLDTFSGFKVDIWSAGVTLYNITTGLYPFEGDNIYKLFENIGKGSYAIPGDCGPPLSDLLKGMLEYEPAKRFSIRQIRQHSWFRKKHPPAEAPVPIPPSPDTKDRWRSMTVVPYLEDLHGADEDEDLFDIEDDIIYTQDFTVPGQVPEEEASHNGQRRGLPKAVCMNGTEAAQLSTKSRAEGRAPNPARKACSASSKIRRLSACKQQ [A225R], the STK11 functional score turned out to be 1.07 ± 0.44.
Under MEVVDPQQLGMFTEGELMSVGMDTFIHRIDSTEVIYQPRRKRAKLIGKYLMGDLLGEGSYGKVKEVLDSETLCRRAVKILKKKKLRRIPNGEANVKKEIQLLRRLRHKNVIQLVDVLYNEEKQKMYMVMEYCVCGMQEMLDSVPEKRFPVCQAHGYFCQLIDGLEYLHSQGIVHKDIKPGNLLLTTGGTLKISDLGVAEALHPFAADDTCRTSQGSPAFQPPEIYNGLDTFSGFKVDIWSAGVTLYNITTGLYPFEGDNIYKLFENIGKGSYAIPGDCGPPLSDLLKGMLEYEPAKRFSIRQIRQHSWFRKKHPPAEAPVPIPPSPDTKDRWRSMTVVPYLEDLHGADEDEDLFDIEDDIIYTQDFTVPGQVPEEEASHNGQRRGLPKAVCMNGTEAAQLSTKSRAEGRAPNPARKACSASSKIRRLSACKQQ [A225Y] stands 0.922 ± 0.45.
As to MEVVDPQQLGMFTEGELMSVGMDTFIHRIDSTEVIYQPRRKRAKLIGKYLMGDLLGEGSYGKVKEVLDSETLCRRAVKILKKKKLRRIPNGEANVKKEIQLLRRLRHKNVIQLVDVLYNEEKQKMYMVMEYCVCGMQEMLDSVPEKRFPVCQAHGYFCQLIDGLEYLHSQGIVHKDIKPGNLLLTTGGTLKISDLGVAEALHPFAADDTCRTSQGSPAFQPPEISNGLDTFSGFKVDIWSAGVTLYNITTGLYPFEGDNIYKLFENIGKGSYAIPGDCGPPLSDLLKGMLEYEPAKRFSIRQIRQHSWFRKKHPPAEAPVPIPPSPDTKDRWRSMTVVPYLEDLHGADEDEDLFDIEDDIIYTQDFTVPGQVPEEEASHNGQRRGLPKAVCMNGTEAAQLSTKSRAEGRAPNPARKACSASSKIRRLSACKQQ [A225S], the STK11 functional score worked out at 1.06 ± 0.29.
For the variant MEVVDPQQLGMFTEGELMSVGMDTFIHRIDSTEVIYQPRRKRAKLIGKYLMGDLLGEGSYGKVKEVLDSETLCRRAVKILKKKKLRRIPNGEANVKKEIQLLRRLRHKNVIQLVDVLYNEEKQKMYMVMEYCVCGMQEMLDSVPEKRFPVCQAHGYFCQLIDGLEYLHSQGIVHKDIKPGNLLLTTGGTLKISDLGVAEALHPFAADDTCRTSQGSPAFQPPEIVNGLDTFSGFKVDIWSAGVTLYNITTGLYPFEGDNIYKLFENIGKGSYAIPGDCGPPLSDLLKGMLEYEPAKRFSIRQIRQHSWFRKKHPPAEAPVPIPPSPDTKDRWRSMTVVPYLEDLHGADEDEDLFDIEDDIIYTQDFTVPGQVPEEEASHNGQRRGLPKAVCMNGTEAAQLSTKSRAEGRAPNPARKACSASSKIRRLSACKQQ [A225V], the STK11 functional score is 1.28 ± 0.52.
